Legend:
[1] = biological target: T1, HA-BimEL (S94/98A) mutant (human, UniProt O43521 1-198); assay: co-immunoprecipitation with HA resin from transfected HEK293 cells (FIG. 2A)
T1 construct: HA-tagged, expressed in HEK293
Procedure: Twenty-four hours after transfection, cells were treated for 3 hours with PMA and MG 132. Whole cell extracts (WCE) were subjected to immunoprecipitation using HA resin (α-HA) followed by immunoblotting with indicated antibodies.

[2] = biological target: T2, human BimEL (Bcl-2-Interacting Mediator of cell death, Extra Long isoform) (human, UniProt O43521 1-198, phosphorylated in cells after PMA treatment (Ser69, Ser93, Ser94, Ser98 as the filing reports)); assay: co-immunoprecipitation with FLAG resin from HEK293 cells expressing FLAG-tagged F-box proteins, immunoblot for BimEL
T2 construct: 198 aa protein, GenBank AAC39593; also called HA-BimEL WT; wild-type BimEL
Procedure: For these binding studies, HEK293 cells were transfected with the indicated FLAG-tagged Fbw family F-box protein constructs (in FIG. 1). Twenty-four hours after transfection cells were treated for 3 hours with PMA (20 nM) and the proteasome inhibitor MG132 (10 μM) then harvested and lysed. Whole cell extracts (WCE) were subjected to immunoprecipitation using FLAG resin (α-FLAG), followed by immunoblotting with indicated antibodies (EV: empty vector).

B1: human β-TrCP1 (beta-transducin repeat containing protein 1) (other)
chain: MDPAEAVLQEKALKFMCSMPRSLWLGCSSLADSMPSLRCLYNPGTGALTAFQNSSEREDCNNGEPPRKIIPEKNSLRQTYNSCARLCLNQETVCLASTAMKTENCVAKTKLANGTSSMIVPKQRKLSASYEKEKELCVKYFEQWSESDQVEFVEHLISQMCHYQHGHINSYLKPMLQRDFITALPARGLDHIAENILSYLDAKSLCAAELVCKEWYRVTSDGMLWKKLIERMVRTDSLWRGLAERRGWGQYLFKNKPPDGNAPPNSFYRALYPKIIQDIETIESNWRCGRHSLQRIHCRSETSKGVYCLQYDDQKIVSGLRDNTIKIWDKNTLECKRILTGHTGSVLCLQYDERVIITGSSDSTVRVWDVNTGEMLNTLIHHCEAVLHLRFNNGMMVTCSKDRSIAVWDMASPTDITLRRVLVGHRAAVNVVDFDDKYIVSASGDRTIKVWNTSTCEFVRTLNGHKRGIACLQYRDRLVVSGSSDNTIRLWDIECGACLRVLEGHEELVRCIRFDNKRIVSGAYDGKIKVWDLVAALDPRAPAGTLCLRTLVEHSGRVFRLQFDEFQIVSSSHDDTILIWDFLNDPAAQAEPPRSPSRTYTYISR
notes: also called Fbp1
[1]
  binding result: no binding
[2]
  binding result: binds

Source: patent US20090318535A1 (NEW YORK UNIVERSITY, published 2009)
